Measured values reported in paper PMC9098846, “Molecular insights into biogenesis of glycosylphosphatidylinositol anchor proteins” (Nature Communications, 2022).

B1: PIGU, subunit of the human GPI transamidase (GPI-T) (natural protein)
chain: AAPLVLVLVVAVTVRAALFRSSLAEFISERVEVVSPLSSWKRVVEGLSLLDLGVSPYSGAVFHETPLIIYLFHFLIDYAELVFMITDALTAIALYFAIQDFNKVVFKKQKLLLELDQYAPDVAELIRTPMEMRYIPLKVALFYLLNPYTILSCVAKSTCAINNTLIAFFILTTIKGSAFLSAIFLALATYQSLYPLTLFVPGLLYLLQRQYIPVKMKSKAFWIFSWEYAMMYVGSLVVIICLSFFLLSSWDFIPAVYGFILSVPDLTPNIGLFWYFFAEMFEHFSLFFVCVFQINVFFYTIPLAIKLKEHPIFFMFIQIAVIAIFKSYPTVGDVALYMAFFPVWNHLYRFLRNIFVLTCIIIVCSLLFPVLWHLWIYAGSANSNFFYAITLTFNVGQILLISDYFYAFLRREYYLTHGLYLTAKDGTEAMLVLK
notes: PIGU, human, Genbank ID NP_536724.1; gene assembled from overlapping oligonucleotides; also called Gab1p (yeast name); source: Expi293 cells co-transfected with five plasmids carrying all subunits; purified as the GPI-T complex (Strep-Tactin, Ni-NTA, gel filtration) in digitonin; not shown: Strep, C-terminal, kept
B2: PIGT, subunit of the human GPI transamidase (GPI-T) (natural protein)
chain: LAEPPRDSLREELVITPLPSGDVAATFQFRTRWDSELQREGVSHYRLFPKALGQLISKYSLRELHLSFTQGFWRTRYWGPPFLQAPSGAELWVWFQDTVTDVDKSWKELSNVLSGIFCASLNFIDSTNTVTPTASFKPLGLANDTDHYFLRYAVLPREVVCTENLTPWKKLLPCSSKAGLSVLLKADRLFHTSYHSQAVHIRPVCRNARCTSISWELRQTLSVVFDAFITGQGKKDWSLFRMFSRTLTEPCPLASESRVYVDITTYNQDNETLEVHPPPTTTYQDVILGTRKTYAIYDLLDTAMINNSRNLNIQLKWKRPPENEAPPVPFLHAQRYVSGYGLQKGELSTLLYNTHPYRAFPVLLLDTVPWYLRLYVHTLTITSKGKENKPSYIHYQPAQDRLQPHLLEMLIQLPANSVTKVSIQFERALLKWTEYTPDPNHGFYVSPSVLSALVPSMVAAKPVDWEESPLFNSLFPVSDGSNYFVRLYTEPLLVNLPTPDFSMPYNVICLTCTVVAVCYGSFYNLLTRTFHIEEPRTGGLAKRLANLIRRARGVPPL
modifications: disulfide bond from C182 to PIGK C92
notes: PIGT, human, Genbank ID NP_057021.2; also called Gpi16p (yeast name); source: Expi293 cells co-transfected with five plasmids carrying all subunits; purified as the GPI-T complex (Strep-Tactin, Ni-NTA, gel filtration) in digitonin; not shown: 9×His, C-terminal, kept
B4: PIGS, subunit of the human GPI transamidase (GPI-T) (natural protein)
chain: AAAGAAATHLEVARGKRAALFFAAVAIVLGLPLWWKTTETYRASLPYSQISGLNALQLRLMVPVTVVFTRESVPLDDQEKLPFTVVHEREIPLKYKMKIKCRFQKAYRRALDHEEEALSSGSVQEAEAMLDEPQEQAEGSLTVYVISEHSSLLPQDMMSYIGPKRTAVVRGIMHREAFNIIGRRIVQVAQAMSLTEDVLAAALADHLPEDKWSAEKRRPLKSSLGYEITFSLLNPDPKSHDVYWDIEGAVRRYVQPFLNALGAAGNFSVDSQILYYAMLGVNPRFDSASSSYYLDMHSLPHVINPVESRLGSSAASLYPVLNFLLYVPELAHSPLYIQDKDGAPVATNAFHSPRWGGIMVYNVDSKTYNASVLPVRVEVDMVRVMEVFLAQLRLLFGIAQPQLPPKCLLSGPTSEGLMTWELDRLLWARSVENLATATTTLTSLAQLLGKISNIVIKDDVASEVYKAVAAVQKSAEELASGHLASAFVASQEAVTSSELAFFDPSLLHLLYFPDDQKFAIYIPLFLPMAVPILLSLVKIFLETRKSWRKPEKTD
notes: PIGS, human, Genbank ID NP_149975.1; The Myc tag follows the TGP tag; also called Gpi17p (yeast name); source: Expi293 cells co-transfected with five plasmids carrying all subunits; purified as the GPI-T complex (Strep-Tactin, Ni-NTA, gel filtration) in digitonin

Experiments:
Assay in all cases: cryo-EM structure; single-particle cryo-EM of the purified GPI-T complex in 0.1% digitonin, 150 mM NaCl, 20 mM Tris HCl pH 8.0; 2.53 Å; five subunits with 1:1 stoichiometry
Conditions in all cases: both partners purified
[1] = target: B4
[2] = target: B2
[3] = target: T1, GPAA1, subunit of the human GPI transamidase (GPI-T) (human, UniProt O43292-1 2-621)
T1 construct: GPAA1, human, Genbank ID NP_003792.1; The 2×Flag tag follows the TGP tag; also called Gaa1p (yeast name); source: Expi293 cells co-transfected with five plasmids carrying all subunits; purified as the GPI-T complex (Strep-Tactin, Ni-NTA, gel filtration) in digitonin
T1 sequence: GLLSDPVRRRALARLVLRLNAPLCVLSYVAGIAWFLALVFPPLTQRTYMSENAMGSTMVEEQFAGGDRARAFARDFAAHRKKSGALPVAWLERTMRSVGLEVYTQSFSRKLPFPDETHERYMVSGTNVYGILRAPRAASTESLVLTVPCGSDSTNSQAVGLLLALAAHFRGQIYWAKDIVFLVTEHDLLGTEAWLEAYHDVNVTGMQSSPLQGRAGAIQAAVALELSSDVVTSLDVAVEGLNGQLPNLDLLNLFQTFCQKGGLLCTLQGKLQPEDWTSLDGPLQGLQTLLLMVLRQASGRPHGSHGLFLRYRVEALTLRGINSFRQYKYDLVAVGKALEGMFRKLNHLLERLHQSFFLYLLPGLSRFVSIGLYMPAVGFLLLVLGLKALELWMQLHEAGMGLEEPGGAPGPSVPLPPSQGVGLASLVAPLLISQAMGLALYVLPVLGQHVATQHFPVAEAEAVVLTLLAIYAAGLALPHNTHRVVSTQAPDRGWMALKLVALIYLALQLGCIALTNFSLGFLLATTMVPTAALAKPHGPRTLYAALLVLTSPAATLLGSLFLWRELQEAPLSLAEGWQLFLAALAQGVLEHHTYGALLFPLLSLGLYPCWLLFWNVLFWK

[4] = target: B1

B1
binding result [1]: binds
binding result [2]: binds
binding result [3]: binds

B2
binding result [3]: binds

B3: PIGK, subunit of the human GPI transamidase (GPI-T) (enzyme)
chain: SHIEDQAEQFFRSGHTNNWAVLVCTSRFWFNYRHVANTLSVYRSVKRLGIPDSHIVLMLADDMACNPRNPKPATVFSHKNMELNVYGDDVEVDYRSYEVTVENFLRVLTGRIPPSTPRSKRLLSDDRSNILIYMTGHGGNGFLKFQDSEEITNIELADAFEQMWQKRRYNELLFIIDTCQGASMYERFYSPNIMALASSQVGEDSLSHQPDPAIGVHLMDRYTFYVLEFLEEINPASQTNMNDLFQVCPKSLCVSTPGHRTDLFQRDPKNVLITDFFGSVRKVEITTETIKLQQDSEIMESSYKEDQMDEKLMEPLKYAEQLPVAQIIHQKPKLKDWHPPGGFILGLWALIIMVFFKTYGIKHMKFIF
modifications: disulfide bond from C92 to PIGT C182
notes: PIGK, human, Genbank ID NP_005473.1; The HA tag follows the TGP tag; also called Gpi8p (yeast name); source: Expi293 cells co-transfected with five plasmids carrying all subunits; purified as the GPI-T complex (Strep-Tactin, Ni-NTA, gel filtration) in digitonin
binding result [4]: binds
binding result [1]: binds
binding result [2]: binds

B4
binding result [2]: binds
